Experimental data as given in PMC10232555, “Molecular structure of soluble vimentin tetramers” (Scientific Reports, 2023).
Values joined by “and” are separate entries in the source; they are usually repeats but may differ in a detail not shown here. Equal values may be shown once.

B1: vimentin rod domain (residues 93-404) (domain or fragment)
chain: not shown
notes: vimentin, human, rod domain, residues 93-404; theoretical monomer mass printed as 36.9 kDa; also called rod fragment; rod construct; source: denatured in 8 M urea and re-natured by step-wise dialysis before analysis
B2: vimentin coil1B construct (residues 150-249) (domain or fragment)
chain: not shown
notes: vimentin, human, coil1B, residues 150-249; theoretical monomer mass printed as 12.1 kDa; also called coil1B fragment; source: denatured in 8 M urea and re-natured by step-wise dialysis before analysis
B3: vimentin ΔNrod (coil1B and coil2, residues 150-404) (domain or fragment)
chain: not shown
notes: vimentin, human, coil1B and coil2 domains, residues 150-404; theoretical monomer mass printed as 30.2 kDa; source: denatured in 8 M urea and re-natured by step-wise dialysis before analysis

Legend:
[1] = target: the molecule itself; experiment: cross-linking; truncated fragments 0.4 mg/mL in HS conditions (10 mM HEPES, 150 mM NaCl, pH 7.5); DSG and DSBU; reducing SDS-PAGE
[2] = target: the molecule itself; experiment: SEC-MALS; Superdex 200 Increase 10/300 GL, HS buffer (10 mM HEPES, 150 mM NaCl, pH 7.5) after salt jump and 1 h at 37 °C; injected 0.79 mg/mL rod, 0.55 mg/mL ΔNrod, 1.52 mg/mL coil1B

Row | Protein | stoichiometry N [1] | stoichiometry N [2]
1 | B1 | 4 | 4
2 | B2 | 2 | 2
3 | B3 | 2 | 2 and 4
